B1: BCY18316 (peptide)
peptide: ACNLQAPCMETGKVCA
modifications: not checked
B2: BCY19712 (peptide)
peptide: ACNLQAPCLHTGKVCA
modifications: not checked
B3: BCY18269 (peptide)
peptide: ACDLTTHNCAWGICA
modifications: not checked
B4: BCY18301 (peptide)
peptide: ACNLQAPCMATGKVCA
modifications: not checked
B5: BCY19702 (peptide)
peptide: ACNLQAPCMVTGKVCA
modifications: not checked
B6: BCY18302 (peptide)
peptide: ACNLQAPCMLAGKVCA
modifications: not checked
B7: BCY18285 (peptide)
peptide: ACDLTTHNCVWGICA
modifications: not checked
B8: BCY14454 (peptide)
peptide: ACNLQQACLHTGKVCA
modifications: not checked
B9: BCY15102 (peptide)
peptide: ACNLQNPCMKFPCA
modifications: not checked
B10: BCY18318 (peptide)
peptide: ACNLQAPCMYTGKVCA
modifications: not checked
B11: BCY18277 (peptide)
peptide: ACDLQTHNCQWGICA
modifications: not checked
B12: BCY18272 (peptide)
peptide: ACDLTTHNCQWGACA
modifications: not checked
B13: BCY15103 (peptide)
peptide: ACLLHDHCPNTHPKLCA
modifications: not checked
B14: BCY19718 (peptide)
peptide: CDLTTHNCQWGICA
modifications: not checked
B15: BCY18299 (peptide)
peptide: ACNLQAACMLTGKVCA
modifications: not checked
B16: BCY18265 (peptide)
peptide: ACDLATHNCQWGICA
modifications: not checked
B17: BCY15106 (peptide)
peptide: ACLLHDHCPNTHPIICA
modifications: not checked
B18: BCY18295 (peptide)
peptide: CNLQAPCMLTGKVC
modifications: not checked
B19: BCY19695 (peptide)
peptide: KCNLQAPCMLTGKVCA
modifications: not checked
B20: BCY19694 (peptide)
peptide: CNLQAPCMLTGKVCA
modifications: not checked
B21: BCY14458 (peptide)
peptide: ACDLTTHNCIWGVCA
modifications: not checked
B22: BCY19713 (peptide)
peptide: ACNLQQACMQTGKVCA
modifications: not checked
B23: BCY14457 (peptide)
peptide: ACLLHDHCPNTHPKMCA
modifications: not checked
B24: BCY15105 (peptide)
peptide: ACLLHDHCPNSHPEICA
modifications: not checked
B25: BCY15104 (peptide)
peptide: ACLLHEHCPNTHPKMCA
modifications: not checked
B26: BCY19711 (peptide)
peptide: ACNLQAPCMHTGKVCA
modifications: not checked
B27: BCY18304 (peptide)
peptide: ACNLQAPCMLTGAVCA
modifications: not checked
B28: BCY13883 (peptide)
peptide: ACRWSVEDPCGAWCAK(Pent4ynoyl)-NH2
modifications: linker 2-10-14 via TBMT (inferred)
B29: BCY13886 (peptide)
peptide: ACVGLEELGPCSDLCAK(Pent4ynoyl)-NH2
modifications: linker 2-11-15 via TBMT (inferred)

Numbered stars: 1 amine (or outer) side, 2 acyl side, 3 side chain; on linkers, the order of the positions; unused ones are H or OH. Bridge positions count the residues as written; N and C are the ends. Ends that are not written are not given here. * marks the point of attachment. TBMT = 2,4,6-tris(bromomethyl)-s-triazine, C(c1nc(C[*:2])nc(C[*:3])n1)[*:1]; Pent4ynoyl = C#CCCC(=O)*

For the first assay, the target named is Human NKp46 Fc tag (Acro Biosystems, NC1-H5257) (human), O76036. The experiment in a line: SPR Method 1 and/or 2.
Chain of Human NKp46 Fc tag (Acro Biosystems, NC1-H5257) (human), O76036 (O76036 22-255 limits assumed): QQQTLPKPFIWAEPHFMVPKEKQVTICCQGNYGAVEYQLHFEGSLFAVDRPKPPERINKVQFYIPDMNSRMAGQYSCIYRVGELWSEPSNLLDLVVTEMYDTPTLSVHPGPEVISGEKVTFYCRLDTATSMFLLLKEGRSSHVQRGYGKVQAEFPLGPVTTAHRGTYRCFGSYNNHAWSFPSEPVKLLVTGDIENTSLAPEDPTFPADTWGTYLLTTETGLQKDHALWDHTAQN
Consider B1, for which the Kd (in general, the equilibrium constant for the complex coming apart) came to 1510 nM.

In the case of B2, the Kd was 3140 nM.

B3: the Kd was determined as 1640 nM. Against the preceding molecule, the Kd is about 1.9-fold lower.

On to B4, for which the Kd stood at 4030 nM.

In turn, B5 showed a Kd of 2680 nM. Compared with the last molecule, the Kd is about 1.5-fold lower.

Molecule B6 displayed a Kd of 5380 nM.

On to B7, for which the Kd came out at 3760 nM.

Turning to B8, the equilibrium dissociation constant (Kd) stood at 2760 nM.

For B9, the Kd is 1090 nM.

B10 yielded a dissociation constant (Kd) of 1920 nM.

Take B11: the Kd is 1520 nM.

Turning to B12, the Kd turned out to be 3190 nM.

B13: the Kd was 1660 nM.

For B14, the Kd worked out at 1110 nM.

In turn, B15 had a Kd of 1800 nM.

Molecule B16 showed a Kd of 1480 nM.

As for B17, the Kd is 2670 nM.

B18 yielded a Kd of 6410 nM.

As for B19, the Kd is 2380 nM.

Consider B20, for which the Kd is 2510 nM.

B21 had a Kd of 1260 nM. This Kd is about 2-fold lower than that of the molecule before.

For B22, the Kd turned out to be 1830 nM. This Kd and that of the molecule before are within 1.5-fold of each other.

With B23, the dissociation constant (Kd) was 2270 nM.

B24: the equilibrium dissociation constant (Kd) is 3730 nM. Against the preceding molecule, the Kd is about 1.6-fold higher.

On to B25, for which the Kd worked out at 2880 nM. This Kd and that of the molecule before are within 1.5-fold of each other.

With B26, the Kd is 2750 nM.

Take B27: the Kd stood at 1530 nM.

In the next assay the target is biotinylated human FcγRIII (CD16a), variant not stated (human) (UniProt P08637). The experiment in a line: SPR Method A.
Chain of biotinylated human FcγRIII (CD16a), variant not stated (human) (P08637 17-208, change not shown): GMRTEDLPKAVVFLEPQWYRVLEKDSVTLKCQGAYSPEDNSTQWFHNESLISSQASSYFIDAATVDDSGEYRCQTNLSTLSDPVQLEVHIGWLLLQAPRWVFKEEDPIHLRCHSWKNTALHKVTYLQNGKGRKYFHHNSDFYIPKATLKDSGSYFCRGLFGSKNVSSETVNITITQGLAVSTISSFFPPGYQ
With B28, the Kd was determined as 1800 nM.

For the molecule B29, the Kd turned out to be 2200 nM.
